Literature values, collected in patent US20250205311A1, “PHARMACEUTICAL COMPOSITIONS OF SEMAGLUTIDE AND THE METHODS OF USE THEREOF” (PENTIDE THERAPEUTICS LIMITED, priority 2022, published 2025).

Conditions: oral tablet

Substance: N6,26-{18-[N-(17-carboxyheptadecanoyl)-L-glutamyl]-1 0-oxo-3,6, 12, 15-tetraoxa-9, 18-diazaoctadecanoyl}-[8-(2-amino-2-propanoic acid), 34-L-arginine] human glucagon-like peptide 1 (7-37) [semaglutide]
- oral bioavailability: 0.4-1%
